In US20130004947A1, “LUCIFERASE-LINKED ANALYSIS OF DNA-METHYLTRANSFERASE, PROTEIN METHYLTRANSFERASE AND S-ADENOSYLHOMOCYSTEINE AND USES THEREOF” (priority 2010, published 2013):
Values joined by “and” are separate entries in the source; they are usually repeats but may differ in a detail not shown here. Equal entries are not always repeated. Where two headings read alike, the source gives them in different places.

Key:
Type in all cases: biochemical
[1] = tested on: AdoMet and poly(dIdC); assay: continuous luciferase-linked AdoHcy assay of DNMT kinetics; details: for activity of catalytic domain alone (initial reaction rates): without DNMT3L, even at high substrate and enzyme concentrations
Procedure: AdoHcy to ATP Conversion Buffer. The 2×AdoHcy to ATP conversion buffer was prepared as previously described with minor modifications (17). In brief, 100 mL of buffer contained 100 mM Tris-acetate pH 7.7, 2 mM PEP, 2 mM sodium pyrophosphate, 2 mM PRPP, 15 mM (NH4)2SO4, 15 mM (NH4)2MoO4, and phosphatase inhibitors (Roche PhosSTOP, 10 tablets). A 4:1 cellulose:charcoal mixture was suspended in water and packed into a disposable mini-column to a bed volume of 1.5 mL, through which a 10 mL aliquot of the previously prepared buffer was passed at 2 mL/min to remove traces of adenine, AMP, and ATP. Treated buffer was filtered (0.2 μm) and stored in 1 mL aliquots at −80° C. Immediately prior to use, the 2× conversion buffer was completed by additions to give final concentrations of 10 mM MgSO4, 6 U APRTase, 18 U PPDK, and 250 nM MTAN and an increase in volume of 14 μL.
DNMT Kinetics using Continuous Luciferase Assay. Continuous assay buffer (2×) was prepared by adding 200 μl luciferin/luciferase (ATPlite) to 1 mL of the AdoHcy to ATP conversion buffer and warmed to room temperature. To 25 μL of this mixture was added AdoMet and the DNA substrate in DNMT assay buffer (25 mM HEPES pH 7.6, 50 mM KCl, 5% glycerol, 0.1% DTT) in a 96-well non-binding surface microplate. The mixture was incubated at room temperature for 3 min to permit any contaminating adenine, AMP, ATP or 5′-methylthioadenosine (MTA) to be converted to a stable background light signal as measured in the kinetic acquisition mode of the luminometer for 3 min. DNMT was added to give a final volume of 50 μL. After 3 min, the luminescent signal was measured for the following 3 min. […] Initial rates were calculated by subtracting the background rate from that obtained after DNMT addition. Initial rates were fitted to the Morrison equation for tight binding substrates with the exception of data obtained while using M.SssI CpG methyltransferase which were fit to the Michaelis-Menten equation. The Morrison equation was used as high enzyme concentrations were necessary and it could no longer be assumed that free substrate concentration was equal to total substrate concentration. The kinetic parameters Km and Vmax were obtained from these fits after converting the luminescent rate (RLU/s) to an enzymatic rate (pmol AdoHcy/h) using the AdoHcy standard curve. The AdoHcy standard curve was constructed by mixing 25 μL of DNMT assay buffer containing varied concentrations of AdoHcy with 25 μL of continuous assay buffer, incubating for several minutes, and then measuring the luminescence of each sample in the discontinuous acquisition mode of the luminometer. Values were background corrected using a mixture containing no AdoHcy.

[2] = tested on: AdoMet and poly(dIdC); assay: discontinuous luciferase-linked AdoHcy assay of DNMT1 rate; details: 258 nM DNMT1, 682 nM AdoMet
Procedure: DNMT1 Rate Measurement using Discontinuous Luciferase Assay. DNMT1 was added to a solution of 682 nM AdoMet and 1 μg poly(dIdC) in DNMT assay buffer to a concentration of 258 nM in 300 μL total volume which had been equilibrated to 22° C. or 37° C. A control reaction containing no DNMT1 was also performed at 37° C. 15 μL aliquots of the reaction were quenched with 5 μL of 100 mM HCl at 2 min intervals from 2 to 10 min in triplicate. These were neutralized with 5 μL of 100 mM KOH and were mixed with 25 μL of 2×AdoHcy to ATP conversion buffer and incubated at room temperature for several minutes. 20 μL of each mixture were then mixed with 80 μL of ATPlite in a 96-well non-binding surface microplate. These mixtures were incubated at room temperature for several minutes and their luminescence was measured in the single measurement mode of the luminometer. […]
Initial reaction rates for human DNMT1 were measured both at room temperature and at 37° C. […] After incubation at room temperature for ˜3 min, the luminescence of each sample was measured and an initial rate plot was constructed (FIG. 5A). Initial rates measured in RLU/s were converted to units of pmol/h with an AdoHcy standard curve constructed under the same assay conditions (Table 2). […] The discontinuous rates were readily measured even at low AdoMet concentrations, and the assay is suitable for automated screening. […]

[3] = tested on: [methyl-3H]AdoMet and poly(dIdC); assay: radiometric filter paper assay of DNMT1 rate; details: 258 nM DNMT1, 672 nM [methyl-3H]AdoMet
Procedure: DNMT1 Rate Measurement using Radiometric Assay. The same two reactions were prepared as above for the discontinuous luciferase assay with the exception that 672 nM S-adenosyl-1-[methyl-^3H]methionine was used in place of non-radioactive AdoMet. 15 μL aliquots were removed from each reaction in triplicate at 2 min intervals from 2 to 8 min and spotted on 2.3 cm diameter Whatman DE81 filter paper circles which were allowed to dry for 30 min. The circles were washed with 0.2 M NH4HCO3 (4×2 mL), water (4×2 mL), and absolute ethanol (1×2 mL); each wash lasted 5 min before decanting the liquid. Circles were then dried for 1 h, then placed in scintillation vials and covered with 10 mL Betaplate Scint scintillation fluid. Radioactivity was measured on a Tricarb scintillation counter and background was corrected with a no-enzyme control. A conversion factor of 12 CPM/fmol was used.
Parallel reactions were performed with 672 nM [methyl-^3H]AdoMet to compare the initial rates from the luciferase assay with those obtained from the radiometric filter paper assay (4, 5). Reactions were limited to approximately 700 nM AdoMet because of the concentration of the [methyl/-^3H]AdoMet stock solution. The luciferase-linked assays were performed at the same AdoMet concentration. […] The dried circles were analyzed for radioactivity in a scintillation counter. […]

| activity of catalytic domain alone (initial reaction rates) [1] | Substance | Initial rate ([1]; continuous assay, 258 nM DNMT1, 682 nM AdoMet, 1 μg poly(dIdC) per 50 μL) | Vmax ([1]; room temperature) [pmol/h] | kcat ([1]; room temperature) | Km ([1]; room temperature, 1 μg poly(dIdC), value as printed in the text, read-out: Km for AdoMet) [µM] | Km ([1]; room temperature, near saturating AdoMet: 35 μM for DNMT1, 10 μM for CD-DNMT3a/3b complexes with DNMT3L, read-out: Km DNA (poly(dIdC))) | Km ([1]; room temperature, near saturating poly(dIdC), dIdC base pair concentration 16.4 μM, read-out: Km AdoMet) [µM] | Initial rate ([2]; 22° C. (room temperature)) | Initial rate ([2]; 37° C.) | Initial rate ([3]; 22° C.) [pmol/h] | Initial rate ([3]; 37° C.) [pmol/h] |
| --- | --- | --- | --- | --- | --- | --- | --- | --- | --- | --- | --- |
| low activity | CD-DNMT3a: 286 amino acid C-terminal catalytic domain of human DNMT3a (residues 627-912), His6 tagged |  |  |  |  |  |  |  |  |  |  |
| low activity | CD-DNMT3b: 286 amino acid C-terminal catalytic domain of human DNMT3b (residues 568-853), His6 tagged |  |  |  |  |  |  |  |  |  |  |
|  | DNMT1: full-length human DNA (cytosine 5)-methyltransferase 1, N-terminal His6 tag, expressed in SF9 cells | 30 pmol/h and 30.1 pmol/h | 726 ± 75 | 0.00778 ± 0.00083 s⁻¹ and 0.00781 s⁻¹ | 2.7 ± 0.7 | 0.84 µM and 0.837 µM | 2.66 ± 0.75 | 6.3 pmol/h and 6.26 pmol/h | 7.5 pmol/h and 7.52 pmol/h | 11.6 | 13.0 |
